{"source": "paper PMC12342251", "about": "“HBV capsid assembly modulators differentially modulate the assembly of wild-type and drug-resistant core protein chimeric nucleocapsids and empty capsids” (PLOS Pathogens, 2025)", "proteins": {"B1": {"name": "WT-Cp149 dimer (HBV core protein residues 1-149) (domain or fragment)", "chain": "MDIDPYKEFGATVELLSFLPSDFFPSVRDLLDTASALYREALESPEHCSPHHTALRQAILCWGELMTLATWVGVNLEDPASRDLVVSYVNTNMGLKFRQLLWFHISCLTFGRETVIEYLVSFGVWIRTPPAYRPPNAPILSTLPETTVV", "notes": "source: E. coli NiCo21(DE3), purified"}}, "biological_target": "the molecule itself", "test": "SEC", "data": [{"protein": "B1", "values": [{"measurement": "binding result", "value": "binds"}]}]}
